The star is where a group is joined. Nonanoyl = CCCCCCCCC(=O)*
How the values were obtained:
CCR5 [1] = biological target: T1, CCR5 (Homo sapiens (Human), UniProt P51681); assay: cell-based or functional assay
CCR5 [2] = biological target: T1, CCR5; assay: cell-based or functional assay; remark: listed apart in the source

B1: Aminooxypentane-RANTES (2-68) (ligand)
chain: {CH3‑(CH2)4‑O‑N:CH‑CO}-PYSSDTTPCCFAYIARPLPRAHIKEYFYTSGKCSNPAVVFVTRKNRQVCANPEKKWVREYINSLEMS
modifications: ends and bridges not checked
Average Infectivity IC50 (cell-free viral infection assay) (CCR5 [1]): 0.145 nM
Cell-Fusion Result For Comparison (IC50) (CCR5 [1]): 0.48 nM
Mean Relative Potency (IC50 in the envelope-mediated cell fusion assay, relative to AOP-RANTES = 100) (CCR5 [2]): 100 relative to AOP-RANTES = 100 (arbitrary value of the control)

B2: NNY-…-L19I-RANTES (20-68) (ligand)
chain: Nonanoyl-PYSSDTTPCCFAYIARPIPRAHIKEYFYTSGKCSNPAVVFVTRKNRQVCANPEKKWVREYINSLEMS
modifications: ends and bridges not checked
Mean Relative Potency (IC50 in the envelope-mediated cell fusion assay, relative to AOP-RANTES = 100) (CCR5 [2]): 13 relative to AOP-RANTES = 100

B3: AOP-RANTES-K(palmitoyl)-G (ligand)
chain: PYSSDTTPCCFAYIARPLPRAHIKEYFYTSGKCSNPAVVFVTRKNRQVCANPEKKWVREYINSLEMSKG
modifications: N-terminal aminooxypentane in place of Ser 1; epsilon amino group of the Lys of the C-terminal extension carries glyoxylyl=AoA-ethylene diamine-palmitate ("palmitoyl"), joined by an oxime bond
Mean Relative Potency (IC50 in the envelope-mediated cell fusion assay, relative to AOP-RANTES = 100) (CCR5 [2]): 45 relative to AOP-RANTES = 100

B4: NNY-PYSSDTTPCCFAYI-A16S-RANTES (17-68) (ligand)
chain: Nonanoyl-PYSSDTTPCCFAYISRPLPRAHIKEYFYTSGKCSNPAVVFVTRKNRQVCANPEKKWVREYINSLEMS
modifications: ends and bridges not checked
Mean Relative Potency (IC50 in the envelope-mediated cell fusion assay, relative to AOP-RANTES = 100) (CCR5 [2]): 15 relative to AOP-RANTES = 100

B5: n-Nonanoyl-RANTES (2-68) (ligand)
chain: Nonanoyl-PYSSDTTPCCFAYIARPLPRAHIKEYFYTSGKCSNPAVVFVTRKNRQVCANPEKKWVREYINSLEMS
modifications: ends and bridges not checked
Average Infectivity IC50 (cell-free viral infection assay) (CCR5 [1]): 0.024 nM
Cell-Fusion Result For Comparison (IC50) (CCR5 [1]): 0.097 nM

Source: US20040077835A1, “Chemokine receptor modulators, production and use” (published 2004)
